Variants at the floor of the assay were thinned out.
B1: TPR 5TU (parent)
chain: GGAUCUUCUCGAUCUAACAAAAAAGACAAAUCUGCCACAAAGCUUGAGAGCAUCUUCGGAUGCAGAGGCGGCAGCCUUCGGUGGCGCGAUAGCGCCAACGUUCUCAACUAUGACACGCAAAACGCGUGCUCCGUUGAAUGGAGUUUAUCAUG

Variants of: B1
Test: polymerase ribozyme fitness, log enrichment relative to wild type (log ratio); higher = more active; in vitro selection for triplet polymerase activity
Procedure, shortened: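 Libraries of mutants in each subunit of a heterodimeric triplet polymerase ribozyme were generated by PCR and transcribed. In triplicate, each went through one in vitro selection round: annealing with biotinylated primer, partner subunit and triplets; frozen incubation at −7 °C; gel excision of extended constructs; streptavidin-bead capture; RT-PCR. Fitness, taken from Illumina sequencing of input and output libraries, is the logarithm of a genotype's enrichment over wild-type enrichment, averaged across replicates with inverse-variance weights. The logarithm is base 2, and genotypes needed ≥10 input reads and ≥1 read per output to be kept.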

Variant	polymerase ribozyme fitness (log ratio)
C36A C93G C125A	≤ -4.2
C35U C125A U134C	-0.129
G34U A60C G62A G70A G83C C95G U104C	≤ -4.2
C35U C57A U61A G67A C95A C103A C116U	≤ -4.2
C36U A37G U53A C54U C87G	≤ -4.2
C36G G80U C85U C87A U109G U139C A142G	≤ -4.2
C35U A39C U56C C63U A110C A115G A121G G126A	≤ -4.2
C35U A98G C99A U101C G141A	≤ -4.2
C35U C76A C95U U148A	≤ -4.2
C36A U82G U135C U145G G152U	-3.98
C35U C63A	-0.573
C35U U44G C85U C116G C123A	-3.89
C36G C105U	-3.04
C36A A150U	-4.01
C35A A60C U102G	≤ -4.2
C35U A49C G59A C96A U148G A150C	≤ -4.2
C35U A47U U148A A150U	≤ -4.2
C35U U56G U134A	-2.9
C35G A49U G124C	≤ -4.2
C36A C76U	≤ -4.2
C35U A52G	-0.53
C35G G94C U101C A115C	≤ -4.2
C35A A91G C105U	-4.17
C35U C93G	-3.19

Variant	polymerase ribozyme fitness (log ratio)
C36A C96A	≤ -4.2
G34U G94C	-3.96
C35U C51U A52C C76G C93G A115U	≤ -4.2
C35G U53G A64C C79G U109A A115U G128C A142G	≤ -4.2
C35U C57G C85A G124A A138C U139A A142C U144G	≤ -4.2
C36A G48A C93U A113U C118G U144G A150U	≤ -4.2
C36A A39G G59U C85A A98U A107C	≤ -4.2
C35G C87U	-4.18
C35U C43A A60C U101G	≤ -4.2
C35U U56A G143C	-2.48
C35U C51G G71U C131U	≤ -4.2
C36A C93A C105G C125A	≤ -4.2
C35U G50U G83U C87A A115C C118G	≤ -4.2
C36A G92A	-3.98
C35U A142G	-1.79
C36A G117U U148C	≤ -4.2
C35G U55A G58A G86U A147U	-4.06
C35U A40C U45G G50A G88U A91G G140C	≤ -4.2
C35A G62C U109G A122U A142C	≤ -4.2
C35U U82C	0.243
C35A A60C A97G U145G	≤ -4.2
C36G C57G C72G C118U	≤ -4.2
C35A A107U C108U	-3.61
G34U U56G G58A C69G G94C A97G U134C	≤ -4.2

Variant	polymerase ribozyme fitness (log ratio)
C35U C95A C105G	-2.51
C35U A52G C76A A89C U145A	-3.45
C35A A47U C57U U101A C114G C123U	≤ -4.2
C35A G50C G86U C118A	≤ -4.2
C35A A49G C87A C103A	≤ -4.2
C35U G58A C95U	-0.16
C35G G74A U90A C95U	≤ -4.2
C35U A37C U55A C95U	-1.32
C35A A60G C87U C96A G136A U146A	-4.03
C35U A60G G136U	-3.08
C35G C36G G128U	≤ -4.2
C36A U77G G81C G92U A115U G136C	≤ -4.2
C35U A41C C105A	-4.09
C35U	-0.0953
C35A	-2.69
C35G	-3.25
C36A C87U	-3.89
C35A A60U U77A U82A G83C A97U G126A	-3.93
C35U C85G C132U	-3.12
C35U C116U A120G	-0.528
C36A G84U U102A C103U U127C	≤ -4.2
G34U A47G C57G G68A U102A	≤ -4.2
C35U U78A G128A	≤ -4.2
C35U A41C U56A C76U G88U C105U	≤ -4.2

Variant	polymerase ribozyme fitness (log ratio)
C35A U53A G62A	≤ -4.2
C36A U44A G62C C93U U135G U139C U144A	≤ -4.2
C35A G42A A91U	-3.84
C35U G117A U144G A147C	-0.649
C35U G86A C105A A137U	≤ -4.2
C35U G59C	0.0057
C35G C79A G83A A121U	≤ -4.2
C35U U61A G86A C125G G141U	≤ -4.2
C35U G84U A89U A97G G143A	-2.66
C36A C51U G68A C85G A97U	≤ -4.2
C35U A60G C79U G86C C93G G94A U104C	≤ -4.2
C35U C57U	0.194
C35U C57A	0.0108
C35G C96U	-4.18
C35U G117C C118U	-1.01
C36G C87U A106U	≤ -4.2
C35G C95G A97C C114G G124A A138G	≤ -4.2
C35U C54U U55A C116G	0.41
C35A G86A	≤ -4.2
C36U A37U A73G A91U C149U G152U	≤ -4.2
C35A G70A C79U G81A	≤ -4.2
C35A U134C	-3.61
C35U G92C U135C	-2.73
C36A G70U G80U C105U	-0.569

Variant	polymerase ribozyme fitness (log ratio)
C35U G88C C103U	≤ -4.2
G34U G42A U82C U135C	≤ -4.2
C35G C63A C93U	-4.16
G34U G68U C95G G133A	≤ -4.2
C35U G94U	-0.729
C36G U56A A98G	-3.71
C36A C54G U61G C79A G80A U102C	≤ -4.2
G34U G50U A91C	-4.01
C35U U55A U56A G92A A110U U135A G152C	≤ -4.2
C35U C57G G86U G133A	-3.89
C35U U53A U55A C57G G70A G84A C93A	≤ -4.2
C36G A49C G58A G70C U82G A98U U104A A106G	≤ -4.2
C35U C95A	-0.608
C35A C57U C85U C118U G128A G152U	-3.96
C35G U55A C85U	≤ -4.2
C35U U135G	-3.62
C35U U135A	-0.972
C35U A91G G117U A142U	≤ -4.2
G34U C99G A106U U127A C132U U139C	≤ -4.2
C35G G58A G59U A60U A73C C116G C123A G140C	≤ -4.2
C35U G133U	-3.79
C35U C72U U82G C96U A106G G112A	≤ -4.2
C36U A37U U56A A91C C116G	≤ -4.2
C35U A49G U53A C87U A89C C95U C132A A142C	≤ -4.2

Variant	polymerase ribozyme fitness (log ratio)
C35A A41C C57U C85G	≤ -4.2
C35G C76U G92A C123G A137U	≤ -4.2
C35A U45A U101A	-4.13
C35U C72U	-0.649
C35U C87U A107G G126A G136U G140U	≤ -4.2
C35U U77A C149A	≤ -4.2
C35U G92A C96G A98C	-3.23
C36A A97U U101C U139A	≤ -4.2
C35A G86U C87G A97U C105U A119U A150C	≤ -4.2
C35G G58C C75G C76U A89U C95G C108A A137C	≤ -4.2
C35U G58U G74A G80U G83A C116G	≤ -4.2
C35G G71A C96G U139G	-3.91
G34U A106G	-0.622
C35G C75U A91U U148C A150G	≤ -4.2
C35U U146C	0.279
C35U A40U U55A C99A U101G G152A	≤ -4.2
C35G G50C U56A A64U G133C U148G	≤ -4.2
C35A C54G G83A C125A	≤ -4.2
C36G C95A	-3.65
C36G U130C	-3.89
C35G U82A G94U G126A A138U	≤ -4.2
C36A C85U A98G C125A	≤ -4.2
C36A G67C G68C A73U C87A U148C	≤ -4.2
C35A C76U	-3.95

Variant	polymerase ribozyme fitness (log ratio)
C35A C76A	-4.08
C35U C96U U101C C118U	-0.95
C35U A52U C95G A106U A107G C118G	≤ -4.2
C36A G42C U55A A66C C69U C105G A122U G126A A142C	≤ -4.2
C35U G42C C76A C93A G117C	≤ -4.2
C35U A39G G84C A106G A120U G152A	≤ -4.2
C35G A37C A52G G86U A97G	-4.2
C35U C75U G83A G84A C95U C96U	-1.5
C36A C95U C125G U127C	≤ -4.2
C35U U56A C95A C105U G126C	-1.08
C35G G88A C95U U101A G141C	-4.12
C35U A97G U134G U144G	-2.34
C35U C87G	-3.84
C36A G84A	-3.37
C35U C54G C85A	-3.81
G34U U55A A91G G94U	≤ -4.2
C35U G80A A91G G136A	-3.57
C35A G59U C69G	-2.14
C36G C51U C54U C93G	≤ -4.2
C35U G74U G83C A107C G126A U148C	≤ -4.2
C35U G74C C99U	-4.12
C36A C63U	-4.08
C35G G58C G92U C125G A150U	≤ -4.2

Source: the RNAGym collection of RNA variant scans (doi:10.1073/pnas.2313332121)
